Experimental data: publication PMC1802081 (BMC Structural Biology, 2007)
Residue numbers refer to the chain shown, from its start.

B1: ActR-IIB receptor ectodomain (ActR-IIBECD) (receptor, UniProt P27040 19-137, looked up)
chain: SGRGEAETRECIYYNANWELERTNQSGLERCEGEQDKRLHCYASWRNSSGTIELVKKGCWLDDFNCYDRQECVATEENPQVYFCCCEGNFCNERFTHLPEPGGPEVTYEPPPTAPTLLT
notes: mouse is recalled from the PDB entry 2H62 and should be checked there; also called activin type IIB receptor ectodomain; source: E. coli OrigamiB (DE3), purified (Ni2+-IMAC, thrombin cleavage, anion exchange, reversed phase HPLC)
B2: BMPR-II receptor ectodomain (receptor, UniProt Q13873 27-150, looked up)
chain: SQNQERLCAFKDPYQQDLGIGESRISHENGTILCSKGSTCYGLWEKSKGDINLVKQGCWSHIGDPQECHYEECVVTTTPPSIQNGTYRFCCCSTDLCNVNFTENFPPPDTTPLSPPHSFNRDET
notes: BMP type II receptor (BMPR-II), extracellular domain; also called BMPR-IIECD; source: expressed and purified as described earlier [28]
B3: BMP-7 (CHO cells, R&D Systems) (ligand, UniProt P18075 293-431, looked up)
chain: STGSKQRSQNRSKTPKNQEALRMANVAENSSSDQRQACKKHELYVSFRDLGWQDWIIAPEGYAAYYCEGECAFPLNSYMNATNHAIVQTLVHFINPETVPKPCCAPTQLNAISVLYFDDSSNVILKKYRNMVVRACGCH
modifications: biotin (biotinylated for the biosensor; site not stated)
notes: bone morphogenetic protein 7 (BMP-7), mature ligand; source: bought: R&D Systems (CHO cells)
B4: ActR-IIBECD D63A (receptor, UniProt P27040 19-137, looked up)
chain: B1 chain with D63A
notes: source: E. coli OrigamiB (DE3), purified (Ni2+-IMAC, thrombin cleavage, anion exchange, RP-HPLC)
B5: ActR-IIBECD E34A (receptor, UniProt P27040 19-137, looked up)
chain: B1 chain with E34A
notes: as for B4
B6: ActR-IIBECD K37A (receptor, UniProt P27040 19-137, looked up)
chain: B1 chain with K37A
notes: as for B4
B7: ActR-IIBECD K56A (receptor, UniProt P27040 19-137, looked up)
chain: B1 chain with K56A
notes: as for B4
B8: ActR-IIBECD L61A (receptor, UniProt P27040 19-137, looked up)
chain: B1 chain with L61A
notes: also called ActR-IIBL61A; source: E. coli OrigamiB (DE3), purified (Ni2+-IMAC, thrombin cleavage, anion exchange, RP-HPLC)
B9: ActR-IIBECD L61P (receptor, UniProt P27040 19-137, looked up)
chain: B1 chain with L61P
notes: also called ActR-IIBL61P; source: E. coli OrigamiB (DE3), purified (Ni2+-IMAC, thrombin cleavage, anion exchange, RP-HPLC)
B10: ActR-IIBECD Q80A (receptor, UniProt P27040 19-137, looked up)
chain: B1 chain with Q80A
notes: as for B4
B11: ActR-IIBECD R46A (receptor, UniProt P27040 19-137, looked up)
chain: B1 chain with R46A
notes: as for B4
B12: ActR-IIBECD Y42A (receptor, UniProt P27040 19-137, looked up)
chain: B1 chain with Y42A
notes: as for B4

molecular target: T1, binary complex BMP-2:BMPR-IAECD (purified) (UniProt P12643 283-396; P36894 24-152); test: ITC; VP-ITC, 298 K (25 C), HBS500 buffer (10 mM HEPES, 500 mM NaCl, pH 7.4); 150 uM ActR-IIBECD in the syringe, 7.5 uM binary complex BMP-2:BMPR-IAECD in the cell; one-site-binding model; details: both partners purified
T1 construct: as the chain of Dm1; as the chain of Dm2; Complex formed beforehand and placed in the calorimeter cell at 7.5 uM; also called BMP-2:BMPR-IAECD complex; binary complex of BMP-2 and BMPR-IAECD; copies: 2 + 2

| Binder | stoichiometry N |
| --- | --- |
| B1 | 2 |

molecular target: B3; test: SPR; BIACORE 2000; biotinylated ligand on a streptavidin-modified CM5 chip (about 200 RU); receptor ectodomain as analyte at 1, 2, 3, 5, 10, 20 and 50 uM; HBS500 (10 mM HEPES pH 7.4, 500 mM NaCl, 3.4 mM EDTA, 0.005% P20); apparent KD from the dose dependence of equilibrium binding; details: both partners purified

| Binder | Kd [µM] |
| --- | --- |
| B2 | 32 |

molecular target: T2, ActR-II receptor ectodomain (UniProt P27037 20-135); test: as above; details: both partners purified
T2 construct: activin receptor type II (ActR-II), extracellular domain; also called ActR-IIECD; source: expressed and purified as described earlier [28]

| Binder | Kd [µM] |
| --- | --- |
| B3 | 0.43 |

molecular target: T3, wildtype BMP-2 (bone morphogenetic protein 2), E. coli derived (UniProt P12643 283-396); test: SEC; ternary complex of wildtype BMP-2 as isolated from gelfiltration (HBS700 buffer); its composition by analytical SDS-PAGE, band intensities compared with standard mixtures of defined molar ratios; details: both partners purified
T3 construct: dimeric ligand; also called wtBMP-2; BMP-2 dimer

| Binder | stoichiometry N |
| --- | --- |
| B1 | 2.1 ActR-IIBECD per BMP-2 dimer |

molecular target: T4, glycosylated BMP-2 expressed in CHO cells (UniProt P12643 283-396, glycosylated; biotin (biotinylated for the biosensor; site not stated)); test: SPR; BIACORE 2000; biotinylated ligand on a streptavidin-modified CM5 chip (about 200 RU); receptor ectodomain as analyte at 1, 2, 3, 5, 10, 20 and 50 uM; HBS500 (10 mM HEPES pH 7.4, 500 mM NaCl, 3.4 mM EDTA, 0.005% P20); apparent KD from the dose dependence of equilibrium binding; details: both partners purified
T4 construct: bone morphogenetic protein 2 (BMP-2), mature ligand; also called BMP-2 (CHO cells, R&D Systems); source: bought: R&D Systems (CHO cells)

| Binder | rel. KD (against wildtype ActR-IIBECD on the same ligand) [fold] |
| --- | --- |
| B4 | 9.6 |
| B5 | 1 |
| B6 | 6.1 |
| B7 | 11 |
| B8 | 6.4 |
| B9 | 7.9 |
| B10 | 1.3 |
| B11 | 8.4 |
| B12 | 61 |

molecular target: T5, activin A (Sf9 cells) (UniProt P08476 311-426, biotin (biotinylated for the biosensor; site not stated)); test: as above; details: both partners purified
T5 construct: activin A (dimer of inhibin beta A chains), mature ligand; also called Act-A; source: Sf9 cells [59]
T5 sequence (looked up): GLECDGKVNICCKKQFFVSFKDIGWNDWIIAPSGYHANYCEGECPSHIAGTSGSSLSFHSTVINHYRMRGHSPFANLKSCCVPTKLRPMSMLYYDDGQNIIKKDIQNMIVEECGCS

| Binder | rel. KD (against wildtype ActR-IIBECD on the same ligand) [fold] |
| --- | --- |
| B4 | 8.6 |
| B5 | 1 |
| B6 | 0.7 |
| B7 | 2.7 |
| B8 | 24 |
| B9 | 2510 |
| B10 | 1.1 |
| B11 | 2.9 |
| B12 | 290 |

molecular target: B3; test: as above; details: both partners purified; remark: another data set of the same source

| Binder | rel. KD (against wildtype ActR-IIBECD on the same ligand) [fold] |
| --- | --- |
| B4 | 6.7 |
| B5 | 1.8 |
| B6 | 0.3 |
| B7 | 14 |
| B8 | 6.4 |
| B9 | 19 |
| B10 | 1 |
| B11 | 3.3 |
| B12 | 49 |

molecular target: T6, binary complex of BMP-2 bound to immobilized BMPR-IAECD (formed on the biosensor) (UniProt P12643 283-396; P36894 24-152); test: SPR; BMPR-IAECD immobilised; perfusion with 200 nM BMP-2 for 300 s to form the binary complex, then ActR-IIBECD as analyte at 1 to 50 uM for 120 s; apparent KD from the dose dependence of equilibrium binding, Scatchard analysis; details: both partners purified
T6 construct: as the chain of Dm4; as the chain of Dm2; also called BMP-2 in complex with immobilized BMPR-IAECD; binary BMP-2:BMPR-IAECD complex; source: formed on the biosensor by perfusion of immobilized BMPR-IAECD with 200nM BMP-2; copies: 2 +

| Binder | Kd [µM] |
| --- | --- |
| B1 | 9 |

molecular target: T3, wildtype BMP-2 (bone morphogenetic …); test: SEC; ternary complex of wildtype BMP-2 as isolated from gelfiltration (HBS700 buffer); its composition by reversed phase HPLC, peak areas divided by the extinction coefficients; details: both partners purified

| Binder | stoichiometry N |
| --- | --- |
| B1 | 1.97 ActR-IIBECD per 0.98 BMP-2 dimer |
